Assay results reported in publication PMC3489787, “Characterization of EssB, a protein required for secretion of ESAT-6 like proteins in Staphylococcus aureus” (BMC Microbiology, 2012).

B1: EssB^NM (domain or fragment)
chain: MVKNHNPKNEMQDMLTPLDAEEAAKTKLRLDMREIPKSSIKPEHFHLMYLLEQHSPYFIDAELTELRDSFQIHYDINDNHTPFDNIKSFTKNEKLRYLLNIKNLEEVNRTRYTFVLAPDELFFTRDGLPIAKTRGLQNVVDPLPVSEAEFLTRYKALVICAFNEKQSFDALVEGNLELHKGTPFETKVIEAATLDLLTAFLDEQYQKQEQDYSQNYAYVRKVGHTVFKWVAIGMTTLSVLLIAFLAFLYFSV
notes: EssB of Staphylococcus aureus, codons 1-252, N-terminal domain with the PTMD (229-251); also called his-essB^NM product; EssB(1-252); source: E. coli, pET15b, purified (Ni-NTA Agarose, thrombin cleavage); not shown: His6, N-terminal, cleaved
B2: EssB^MC (domain or fragment)
chain: RKVGHTVFKWVAIGMTTLSVLLIAFLAFLYFSVMKHNERIEKGYQAFVKDDYTQVLNTYDDLDGKKLDKEALYIYAKSYIQTNKQGLEKDKKENLLNNVTPNSNKDYLLYWMELGQGHLDEAINIATYLDDNDITKLALINKLNEIKNNGDLSNDKRSEETKKYNDKLQDILDKEKQVKDEKAKSEEEKAKAKDEKLKQQEENEKKQKEQAQKDKEKRQEAERKK
notes: EssB of Staphylococcus aureus, codons 220-444, C-terminal domain with the PTMD (229-251); also called EssB^CM; his-essB^CM product; source: E. coli, pET15b, purified (Ni-NTA Agarose, thrombin cleavage); not shown: His6, N-terminal, cleaved

Biological target: the molecule itself
Assay: SEC; about 100 ug of each purified protein, tags removed, on Superdex 75 10/300 GL in 50 mM Tris-HCl pH 8.0, 150 mM NaCl, 1 mM DTT at 4 °C, 0.5 ml/min; fractions on Coomassie-stained SDS-PAGE; calibrated with aldolase 158, conalbumin 75, ovalbumin 43, myoglobin 17 kDa (the results name a Sephacryl S-200 column)

| Protein | binding result |
| --- | --- |
| B1 | binds |
| B2 | binds |
